The data set can be described thus: yeast display, Sf9 membrane polyspecificity reagent, FACS + sequencing; frameworks hold sequencing errors. In a few lines:
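Genes from sorted yeast were amplified by colony PCR, read by MiSeq 2 × 250 sequencing and filtered on CDR length. These cells carried a synthetic nanobody library in Saccharomyces cerevisiae BJ5465 and were sorted by FACS into low and high (top ~1%) gates on anti-HA and streptavidin fluorescence. Polyreactivity is labelled according to the gate of origin.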
As to “QVQLVESGGGLVQAGGSLRLSCAASGGIFWRYAMGWYRQAPGKERELVAAISSRGGSTYYADSVKGRFTISRDNAKNTVYLQMNSLKPEDTAVYYCAAAFLSRVQGYDSWGQGTQVTVSS”, the “polyreactivity (PSR sort gate)” value is recorded as “high polyreactivity”.
Take “QVQLVESGGGLVQAGGSLRLSCAASGGIFYHYTMGWYRQAPGKERELVASIRGSGGRTYYADSVKGRFTLSRDNAKNTVDLQMNSLKPEDTAVYYCNARGSWYQPTYDYWGQGTQVTVST”: the “polyreactivity (PSR sort gate)” value is given as “high polyreactivity”.
As for “QVQLVESGGGLVQAGGSLRLSCAASGGIFYLNAMGWYRQAPRKERELVAAITGTGGNTYYADSVKGRFTISRDNAKNTVYLQMNSLKPEDTAVYYCAAAAIGVGSGPFGIGWEEYYYWGLGTQVTVSS”, the “polyreactivity (PSR sort gate)” value was “low polyreactivity”.
For the sequence “QVQLVESGGGLVQAGGSLRLSCAASGGIFYRNAMGWYRQAPGKERELVAAITQSGGRTYYADSVKGRFTISRDNAKNTVYLQMNSLKPEDTAVYYCAARSRKLYGHYRGAYDYWGQGTQVTVSS”, the “polyreactivity (PSR sort gate)” value was “high polyreactivity”.
“QVQLVESGGGLVQAGGSLRLSCAASGGIFYVNAMGWYRQAPGKERELVAAITSDGVSTYYADSVKGRFTISRDNAKNTVYLQMNSLKPEDTAVYYCAADNGGAGYYYGYVWYDYWGQGTQVTVSS”: the “polyreactivity (PSR sort gate)” value was “low polyreactivity”.
Consider “QVQLVESGGGLVQAGGSLRLSCAASGGIGSYAMGWYRQAPGKERELVAVITAGGDSTYYADSVKGRFTISRDNAKNTVYLQMNSLKPEDTAVYYCNTVYRSKRYQYDYWGQGTQVTVSS”, for which the “polyreactivity (PSR sort gate)” value is reported as “high polyreactivity”.
As to “QVQLVESGGGLVQAGGSLRLSCAASGGIIDWYVMGWYSQARGKERELVAAISYNGGSTYYADSVKGRFTISRDNAKNTGYLQMNSLKPEDTAVYYCAAAVTWPYRYVWYDYWGQGTQVTVSS”, the “polyreactivity (PSR sort gate)” value was “low polyreactivity”.
Then “QVQLVESGGGLVQAGGSLRLSCAASGGIIRTYARGWYRQAPGNETELVAAITTNAGSTYYADSVKGRFTISRDNAKNTVYLQMNSLKPEDTAVYYCAARWYYPYRTRYSASYGYWVQGTQVTVSS”, with “high polyreactivity”.
Then “QVQLVESGGGLVQAGGSLRLSCAASGGIIWAYAMGWYRQAPGKERELVAAISSSTGTTYYADSVKGRFTISRDNAKNTVYLQMNSLKPEDTAVYYCAAYAYIGDYVSYYGGDYWGQGTQVTVSS”, with “low polyreactivity”.
Then “QVQLVESGGGLVQAGGSLRLSCAASGGILDTYAMGWYRQAPGKERELVAAITSGGNTNYADSVKGRFTISRDNAKNTVYLQMNSLKPEDTAVYYCNVVTWYYVFRPWEYDYWGQGSQVTVSS”, with “low polyreactivity”; and “QVQLVESGGGLVQAGGSLRLSCAASGGILHGYAMGWYIQEPGKERELVSGITYSGDDTNYADSVKGRFTISRDNAKNTVYLQMNSLKPEDTAVYYCAAGPVWHIFTIDYVSFDDWGQGTQVTVSS”, with “low polyreactivity”; and “QVQLVESGGGLVQAGGSLRLSCAASGGILNRYAMGWYRQAPGKERELVAAIRWSGGSTYYADSVKGRFTISRDNAKNTVYLQMNSLKPEDTAVYYCAADVYYYHVLDFDYWGQGTLVTVSS”, with “low polyreactivity”.
For “QVQLVESGGGLVQAGGSLRLSCAASGGILRQNTMGWYRQAPGKETELVAAISSSGGRTYYADSVKGRFTISRDNAKNTVYLQMNSLKPEDTAVYYCARGYSWSVGYPRVHDMDYWGQGTQVTVSS”, the “polyreactivity (PSR sort gate)” value is on record as “high polyreactivity”.
The value for “QVQLVESGGGLVQAGGSLRLSCAASGGILWFYAMGWYIQAPGKEREFVAAIDLGGGSTYYADSVKGRFTISRDNAKTTVYLQMNSLKPEDTAVYYCNAETSGHYSTIMDYWGQGTQVTVSS” was “low polyreactivity”; that for “QVQLVESGGGLVQAGGSLRLSCAASGGLFKVYGMRLYRQAPGQERELVAAISWTTGGTYYADSVKGRFTISRDNAKNTVYLQMNSLKPEDTAVYYCNAPTWYYSGVRYDYWGQGTQVTVSS” was “high polyreactivity”; that for “QVQLVESGGGLVQAGGSLRLSCAASGGNFLAYAMGWYRQAPGKERELVAAITRRGTRTYYADSVKGRFTISRDNAKNTVYLQMNSLKPEDTAVYYCAADYYPASAGFDYWGQGTQVTVSS” was “high polyreactivity”.
